According to paper PMC9176698:
pKd: −log10 of the molar value.

How the values were obtained:
[1] = target: DR4-Fc (UniProt O00220); test: BLI; Octet; DR4-Fc or DR5-Fc immobilised on protein A-coated biosensors, inserted into solutions of TRAIL proteins at different concentrations (2.5-50 nM)
[2] = target: DR5-Fc (UniProt O14763); test: as above
Chain of UniProt O14763 (O14763 56-210): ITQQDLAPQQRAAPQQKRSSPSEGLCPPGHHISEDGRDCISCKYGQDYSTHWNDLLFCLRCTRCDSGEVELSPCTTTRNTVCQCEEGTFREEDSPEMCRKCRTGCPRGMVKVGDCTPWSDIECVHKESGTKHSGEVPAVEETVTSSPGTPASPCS

Chain of UniProt O00220 (O00220 24-239): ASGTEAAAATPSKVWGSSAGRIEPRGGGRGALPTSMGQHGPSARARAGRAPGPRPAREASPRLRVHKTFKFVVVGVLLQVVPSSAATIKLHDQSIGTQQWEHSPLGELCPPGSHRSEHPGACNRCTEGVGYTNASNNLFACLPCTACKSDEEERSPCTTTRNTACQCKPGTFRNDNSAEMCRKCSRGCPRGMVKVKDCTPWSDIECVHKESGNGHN

- pKd [1]: 8.96
- pKd [2]: 9.34
Substance: RGR-TRAIL (tumor-homing RGR peptide fused to the N-terminus of TRAIL) (ligand)
